Results taken from paper doi:10.1101/2021.05.01.442081.

Target: T1, GST-FOXD3 (Mus musculus, UniProt Q61060 1-465)
T1 sequence: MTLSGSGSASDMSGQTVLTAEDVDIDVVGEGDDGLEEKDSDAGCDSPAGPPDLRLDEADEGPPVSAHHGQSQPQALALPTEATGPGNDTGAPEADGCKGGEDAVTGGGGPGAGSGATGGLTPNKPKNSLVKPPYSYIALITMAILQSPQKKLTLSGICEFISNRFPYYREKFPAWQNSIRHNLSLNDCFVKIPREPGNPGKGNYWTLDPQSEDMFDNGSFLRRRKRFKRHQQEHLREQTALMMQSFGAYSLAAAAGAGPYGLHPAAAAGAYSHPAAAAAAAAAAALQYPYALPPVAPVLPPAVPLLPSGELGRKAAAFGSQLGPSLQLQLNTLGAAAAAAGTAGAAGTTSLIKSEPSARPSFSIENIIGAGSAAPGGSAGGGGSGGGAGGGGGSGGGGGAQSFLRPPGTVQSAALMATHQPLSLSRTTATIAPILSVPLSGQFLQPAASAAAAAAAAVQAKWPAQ
Assay: EMSA

B1: MERVL-LTR (dsDNA)
DNA 1: AGACTCAAAGCAAAACAGGCTCCTAGAGGGGAGGT
DNA 2: ACCTCCCCTCTAGGAGCCTGTTTTGCTTTGAGTCT
B1: binds.
